Experimental findings from publication PMC4323418 are described below.

Read-outs that look alike come from different tables or passages of the source.

Data set [1] addresses T1, CceR-6xHis (Rhodobacter sphaeroides 2.4.1, UniProt Q3J5X3 1-345).
T1 sequence: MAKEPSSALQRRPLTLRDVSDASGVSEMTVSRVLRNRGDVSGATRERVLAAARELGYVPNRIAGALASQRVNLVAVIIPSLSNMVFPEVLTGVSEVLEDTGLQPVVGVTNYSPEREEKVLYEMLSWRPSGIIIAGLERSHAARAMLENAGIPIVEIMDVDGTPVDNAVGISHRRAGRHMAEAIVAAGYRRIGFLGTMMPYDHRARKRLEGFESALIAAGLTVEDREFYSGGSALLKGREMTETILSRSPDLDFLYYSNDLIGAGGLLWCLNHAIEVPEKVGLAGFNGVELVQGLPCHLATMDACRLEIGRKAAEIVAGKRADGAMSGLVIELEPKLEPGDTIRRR
Description: EMSA.

The target in data set [2] is T1, CceR-6xHis. Description: EMSA. This is another data set of the same source.

B1: zwf promoter fragment (dsDNA)
DNA 1: CGGGCGTCTTTCCACATTTACCCCGGCGGGGGGCGCGCTAGACTCGGGCCACGGCAGCCGCTAGAACGGCCGTTAGCGCTAACAGGCGAGGCAGC
DNA 2: GCTGCCTCGCCTGTTAGCGCTAACGGCCGTTCTAGCGGCTGCCGTGGCCCGAGTCTAGCGCGCCCCCCGCCGGGGTAAATGTGGAAAGACGCCCG
With B1, the binding result in data set [1] is given as “binds”.

B2: bchF promoter fragment (dsDNA)
DNA 1: TCATCCAAGGAGGAACGCATGTCAAAGAAAATTGACACCTCAGGCAGCGGAGGCAGCCCATCCCCCGCTGAACTCACACTTAATCCTTGGATTTACGACAGAGTGTCGCAGCTTC
DNA 2: GAAGCTGCGACACTCTGTCGTAAATCCAAGGATTAAGTGTGAGTTCAGCGGGGGATGGGCTGCCTCCGCTGCCTGAGGTGTCAATTTTCTTTGACATGCGTTCCTCCTTGGATGA
Take B2: in data set [2], the binding result is “no binding”.
